PMC11339278 (2024)

T1: SNX17ΔC (residue 1-390) with an intramolecular decaHis tag (human, UniProt Q15036 1-390)
T1 chain: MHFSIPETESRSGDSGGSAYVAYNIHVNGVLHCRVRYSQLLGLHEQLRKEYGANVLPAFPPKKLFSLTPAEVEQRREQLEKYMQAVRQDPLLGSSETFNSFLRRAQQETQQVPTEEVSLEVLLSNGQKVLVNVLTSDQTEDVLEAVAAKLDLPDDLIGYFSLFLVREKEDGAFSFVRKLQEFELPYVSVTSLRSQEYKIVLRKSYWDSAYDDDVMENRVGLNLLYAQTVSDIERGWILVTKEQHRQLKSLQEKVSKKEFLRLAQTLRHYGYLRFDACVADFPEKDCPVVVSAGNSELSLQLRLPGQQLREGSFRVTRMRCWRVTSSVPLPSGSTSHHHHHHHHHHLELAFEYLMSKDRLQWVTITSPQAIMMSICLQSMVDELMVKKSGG

T2: SNX17 full length (residue 1-470) with an intramolecular decaHis tag (human, UniProt Q15036 1-470)
T2 chain: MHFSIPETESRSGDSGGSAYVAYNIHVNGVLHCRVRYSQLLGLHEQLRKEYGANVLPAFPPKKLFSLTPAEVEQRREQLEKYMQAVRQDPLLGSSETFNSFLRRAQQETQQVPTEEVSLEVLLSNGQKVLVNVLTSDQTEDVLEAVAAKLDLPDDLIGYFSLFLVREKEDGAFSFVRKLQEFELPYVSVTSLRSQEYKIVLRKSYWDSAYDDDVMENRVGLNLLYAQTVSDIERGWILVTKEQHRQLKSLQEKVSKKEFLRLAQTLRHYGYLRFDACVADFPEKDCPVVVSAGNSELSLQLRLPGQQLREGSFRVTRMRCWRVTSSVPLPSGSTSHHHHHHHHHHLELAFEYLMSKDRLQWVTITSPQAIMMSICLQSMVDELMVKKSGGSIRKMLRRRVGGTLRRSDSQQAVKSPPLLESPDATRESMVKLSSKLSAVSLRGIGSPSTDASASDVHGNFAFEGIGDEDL


What was measured:
CCDC22 (endogenous) = assay: GFP-nanotrap pull-down, quantitative western blot; details: HEK293T cells, transient co-transfection; n = 3; parent: est. 1.0; read off a plot
VPS29 (endogenous) = assay: GFP-nanotrap pull-down, quantitative western blot; details: HEK293T cells, transient co-transfection; n = 3; parent: est. 1.0; read off a plot
CCDC93 (endogenous) = assay: GFP-nanotrap pull-down, quantitative western blot; details: HEK293T cells, transient co-transfection; n = 3; parent: est. 1.0; read off a plot
[1] = target: SNX17ΔC (residue 1-390) with an intramolecular decaHis tag (human) (UniProt Q15036); assay: ITC; 2 mM SNX17 tail peptide injected into 20 μM SNX17 FL or SNX17ΔC; 13 x 3.22 μL; 10 °C; 500 mM NaCl, 100 mM Tris pH 8.0, 5% glycerol; single site binding model
[2] = target: T1, SNX17ΔC (residue 1-390) with an …; assay: ITC
[3] = target: SNX17ΔC (residue 1-390) with an intramolecular decaHis tag (human) (UniProt Q15036); assay: ITC; APP or LRP1 peptide at 250 μM injected into 20 μM SNX17 FL or SNX17ΔC; 13 x 3.22 μL; 10 °C; 500 mM NaCl, 100 mM Tris pH 8.0, 5% glycerol; single site binding model
[4] = target: SNX17 full length (residue 1-470) with an intramolecular decaHis tag (human) (UniProt Q15036); assay: as above
[5] = target: SNX17 full length (residue 1-470) with an intramolecular decaHis tag (human) (UniProt Q15036); assay: ITC; Microcal PEAQ, 10 °C, 500 mM NaCl, 100 mM Tris pH 8.0, 5% glycerol; 250 µM APP or LRP1 peptide, or 2 mM SNX17 tail peptide, injected into 20 µM SNX17 FL or SNX17ΔC; single site binding model
[6] = target: T2, SNX17 full length (residue 1-470) with …; assay: ITC

| ratio to parent (CCDC22 (endogenous)) | ratio to parent (VPS29 (endogenous)) | ratio to parent (CCDC93 (endogenous)) | Kd [1] [µM] | Kd [2] [µM] | Kd [3] [µM] | Kd [4] [µM] | fold lower affinity than for SNX17ΔC [5] [fold] | Kd [6] [µM] | Molecule |
| --- | --- | --- | --- | --- | --- | --- | --- | --- | --- |
| 0.75 | 0.62 | 0.73 | – | – | – | – | – | – | VPS35L-GFP (from UniProt Q7Z3J2-1) W280A |
| 0.95 | 0.97 | 0.88 | – | – | – | – | – | – | VPS35L-GFP (from UniProt Q7Z3J2-1) K283E |
| – | – | – | 189 | 116 | – | – | – | – | SASDVHGNFAFEGIGDEDL [synthetic peptide of the SNX17 tail (452-470)] |

The next lines start with the molecule.

| Molecule | ratio to parent (CCDC22 (endogenous)) | ratio to parent (VPS29 (endogenous)) | ratio to parent (CCDC93 (endogenous)) | Kd [1] [µM] | Kd [2] [µM] | Kd [3] [µM] | Kd [4] [µM] | fold lower affinity than for SNX17ΔC [5] [fold] | Kd [6] [µM] |
| --- | --- | --- | --- | --- | --- | --- | --- | --- | --- |
| VPS35L-GFP (from UniProt Q7Z3J2-1) R248A | 1 | 1.1 | 1.1 | – | – | – | – | – | – |
| VEIGNPTYKMYEGG [LRP1 cargo recognition peptide (4466-4479)] | – | – | – | – | 3.64 | 4.6 | 14.3 | 2 | 13.6 |
| NGYENPTYKFFEQM [APP cargo recognition peptide (755-768)] | – | – | – | – | 4.74 | 7.03 | 16 | 2 | 14.8 |
